The values that follow come from publication PMC3106293.

For orientation: Km means the substrate concentration at which the rate is half of its maximum. By Vmax is commonly meant the top rate of the reaction or transport when substrate is in excess.

Settings in all cases: other: flavonoid as substrate; substrate inhibition equation (2); 37.0 °C
Substrate in data set [1]: COc1ccc([C@@H]2CC(=O)c3c(O)cc(O)cc3O2)cc1O
As to the kind of experiment: not read.

Substrate in data set [2]: O=C1C[C@@H](c2ccc(O)c(O)c2)Oc2cc(O)cc(O)c21
The experiment in a line: not read.

Substrate in data set [3]: Oc1cc(O)c2c(c1)O[C@H](c1ccc(O)c(O)c1)[C@H](O)C2
The experiment in a line: not read.

Substrate in data set [4]: O=C1C[C@@H](c2ccc(O)c(O)c2)Oc2cc(O)cc(O)c21
As to the kind of experiment: Sulfation of flavonoids by recombinant hSULT1A1. The data set is classed as in vitro ADME, human.

Substrate in data set [5]: Oc1cc(O)c2c(c1)O[C@H](c1ccc(O)c(O)c1)[C@H](O)C2
As to the kind of experiment: Sulfation of flavonoids by recombinant hSULT1A1. The data set is classed as in vitro ADME, human.

B1: hSULT1A3 (Homo sapiens) (protein)
chain: MELIQDTSRPPLEYVKGVPLIKYFAEALGPLQSFQARPDDLLINTYPKSGTTWVSQILDMIYQGGDLEKCNRAPIYVRVPFLEVNDPGEPSGLETLKDTPPPRLIKSHLPLALLPQTLLDQKVKVVYVARNPKDVAVSYYHFHRMEKAHPEPGTWDSFLEKFMAGEVSYGSWYQHVQEWWELSRTHPVLYLFYEDMKENPKREIQKILEFVGRSLPEETMDFMVQHTSFKEMKKNPMTNYTTVPQELMDHSISPFMRKGMAGDWKTTFTVAQNERFDADYAEKMAGCSLSFRSEL
As to B1, the Michaelis constant (Km) in the data set “not read [1]” is 179 ± 3.7 µM. Also, in “not read [2]”, the Michaelis constant (Km) is 193 ± 3.3 µM, the Vmax was determined as 0.269 µmol/min/mg and the Vmax/Km stood at 1390 µL/min/mg. In the data set “not read [3]”, the Michaelis-Menten constant (Km) came out at 437 ± 10.1 µM, the maximal velocity (Vmax) amounted to 0.442 µmol/min/mg and the Vmax/Km was determined as 1010 µL/min/mg.

B2: hSULT1A1 (Homo sapiens) (protein)
chain: MELIQDTSRPPLEYVKGVPLIKYFAEALGPLQSFQARPDDLLISTYPKSGTTWVSQILDMIYQGGDLEKCHRAPIFMRVPFLEFKAPGIPSGMETLKDTPAPRLLKTHLPLALLPQTLLDQKVKVVYVARNAKDVAVSYYHFYHMAKVHPEPGTWDSFLEKFMVGEVSYGSWYQHVQEWWELSRTHPVLYLFYEDMKENPKREIQKILEFVGRSLPEETVDFVVQHTSFKEMKKNPMTNYTTVPQEFMDHSISPFMRKGMAGDWKTTFTVAQNERFDADYAEKMAGCSLSFRSEL
As for B2, in the data set “not read [1]”, the Michaelis-Menten constant (Km) worked out at 63.0 ± 0.6 µM, the maximal velocity (Vmax) worked out at 0.0927 µmol/min/mg and the Vmax/Km turned out to be 1470 µL/min/mg. Besides, in data set [4], the Km stood at 80.8 ± 3.3 µM, the maximum rate (Vmax) was found to be 0.0986 µmol/min/mg and the Vmax/Km came to 1220 µL/min/mg. In addition, in data set [5], the Michaelis constant (Km) was 301 ± 89.0 µM, the Vmax worked out at 0.188 µmol/min/mg and the Vmax/Km was determined as 620 µL/min/mg.
